Assay results: publication doi:10.1101/2021.05.13.443999

Target: p47^phox (human (endogenous in HEK-293 and in human midbrain)) (UniProt P14598)
Test: proximity ligation

UniProt P14598, sequence (P14598 whole entry): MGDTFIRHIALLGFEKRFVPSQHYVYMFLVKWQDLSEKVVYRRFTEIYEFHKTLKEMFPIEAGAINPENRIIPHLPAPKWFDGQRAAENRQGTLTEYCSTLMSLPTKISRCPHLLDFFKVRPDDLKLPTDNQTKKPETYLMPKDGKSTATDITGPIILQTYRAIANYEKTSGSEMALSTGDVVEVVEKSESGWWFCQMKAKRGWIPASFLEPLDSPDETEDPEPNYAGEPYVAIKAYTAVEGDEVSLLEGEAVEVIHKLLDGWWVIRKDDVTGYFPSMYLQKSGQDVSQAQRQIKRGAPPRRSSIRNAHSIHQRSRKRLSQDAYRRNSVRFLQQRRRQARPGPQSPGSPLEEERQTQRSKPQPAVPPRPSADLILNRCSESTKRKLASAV

In the case of “NOX2 docking sequence (Nox2ds)-tat (peptide)”, the IC50 is reported as 700 nM.
